Data as given in publication PMC9896449 (Nature Communications, 2023).

Target: ShAb01 (nurse shark (Ginglymostoma cirratum))
Assay: BLI
Conditions: both partners purified

B1: SARS-CoV-1 RBD (domain or fragment)
chain: not shown
**Q.** B1 was tested. Which Kd did it give?
**A.** The Kd was 198 nM.
